The text below walks through data of patent US20160185837A1 (Medimmune Limited, priority 2013, published 2016).

Series [1] has as its target T1, human GIP receptor (hGIPr) (Homo sapiens, UniProt P48546).
T1 construct: expressed in transfected cells
T1 sequence (P48546 22-466): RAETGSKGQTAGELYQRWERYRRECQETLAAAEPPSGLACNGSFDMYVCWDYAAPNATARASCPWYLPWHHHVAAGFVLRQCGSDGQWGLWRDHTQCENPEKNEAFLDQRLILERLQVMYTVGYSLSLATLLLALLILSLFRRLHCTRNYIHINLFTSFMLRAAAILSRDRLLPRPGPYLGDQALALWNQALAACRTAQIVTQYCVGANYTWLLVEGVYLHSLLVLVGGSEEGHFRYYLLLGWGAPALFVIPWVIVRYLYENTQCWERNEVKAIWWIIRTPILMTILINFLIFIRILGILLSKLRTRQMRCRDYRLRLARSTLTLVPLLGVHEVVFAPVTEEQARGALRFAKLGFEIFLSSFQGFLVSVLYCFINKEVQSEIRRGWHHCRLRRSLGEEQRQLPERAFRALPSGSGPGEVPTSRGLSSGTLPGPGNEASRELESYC
Description: BSA-cAMP assay, cells expressing human GIP receptor. Format: cell-based. Put shortly:
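EC50 came from an unconstrained 4-parameter logistic fit of HTRF cAMP data expressed as percent of maximal native agonist activation, tested on two occasions. Thawed receptor-expressing cells (hGLP-1r, hGIPr at 0.5×10^5 cells/ml) treated 30 min at room temperature in 0.1% BSA-containing medium; two distinct hGIPr lines.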

The target in the next series is T2, hGIPr (C3) (Homo sapiens, UniProt P48546).
T2 construct: expressed in transfected cells
T2 sequence (P48546 22-466): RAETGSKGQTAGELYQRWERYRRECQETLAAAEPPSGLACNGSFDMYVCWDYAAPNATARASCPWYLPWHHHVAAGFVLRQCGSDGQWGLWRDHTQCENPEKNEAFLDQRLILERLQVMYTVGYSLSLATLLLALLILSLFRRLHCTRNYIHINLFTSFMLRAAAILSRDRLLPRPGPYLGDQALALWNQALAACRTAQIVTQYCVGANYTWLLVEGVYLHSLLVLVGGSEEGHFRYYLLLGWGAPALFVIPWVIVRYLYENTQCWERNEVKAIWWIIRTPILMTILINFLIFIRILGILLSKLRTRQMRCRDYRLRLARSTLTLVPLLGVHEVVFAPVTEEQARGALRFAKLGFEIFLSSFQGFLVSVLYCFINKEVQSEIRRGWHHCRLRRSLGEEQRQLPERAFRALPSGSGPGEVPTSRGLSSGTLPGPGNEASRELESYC
Briefly: BSA-cAMP assay, second human GIPr cell line hGIPr (C3). Type of series: cell-based. The following applies: Batch 1, second hGIPr cell line, read-out: hGIPr (C3) cAMP activity EC50. On the procedure:
For human GIPr, two different lines were used, shown as “hGIPr” and “hGIPr (C3)” in Table 11. Peptide activation of these various receptors results in downstream production of cAMP second messenger that can be measured in a functional activity assay.
One basic cAMP assays was performed, differing in the medium used for the assay, the “BSA-cAMP assay”:
BSA-based assay medium: 0.1% bovine serum albumin (BSA) in
Hanks Balanced Salt Solution (GIBCO or Sigma), containing 0.5 mM IBMX (Sigma #17018);
In certain aspects, the assay can also be carried out in medium supplemented with serum albumin that corresponds to the receptor being tested, e.g., human serum albumin for testing cAMP activity at hGIPr or hGLP-1r, rat serum albumin for testing cAMP activity at rGIPr or rGLP-1r, and so on. […]
cAMP levels were measured using a commercially available cAMP dynamic 2 HTRF kit (Cisbio, Cat #62AM4PEJ), following the two step protocol as per manufacturer's recommendations. […] Plates were incubated at room temperature for one hour and then read on an Envision (Perkin Elmer) using excitation wavelength of 320 nm and emission wavelengths of 620 nm & 665 nm. Data was transformed to % Delta F as described in manufacturer's guidelines and then transformed to percent activation of maximal native agonist response and analysed by 4-parameter logistic fit to determine EC50 values. […]
(Cyclic AMP is a second messenger, typically raised through Gs and lowered through Gi signalling.)

For series [2], the target named is T3, human glucagon receptor (GCGr) (Homo sapiens, UniProt P47871).
T3 construct: expressed in transfected cells; host or cells: HEK293s or CHO cells
Description: BSA-cAMP assay, cells expressing human glucagon receptor. Format: cell-based. The following applies: Batch 1, read-out: hGCGr cAMP activity EC50.

The nature of another series: PK by Fc Detection. As for the experimental part: Table printed on a drawing sheet, FIG. 3A-C
Title: PK by Fc Detection
Circles: IV injection of 1 mg/kg, squares: subcutaneous injection of 1 mg/kg. Pharmacokinetic parameters Cmax, bioavailability (F %) and half-life T1/2 are compared in panel C.
Circles: IV injection of 1 mg/kg, squares: subcutaneous injection of 1 mg/kg. Pharmacokinetic parameters Cmax, bioavailability (F %) and half life T112 are compared in panel F.
First reader's note: Panel C of FIG. 3A-C; the title 'PK by Fc Detection' is printed over the whole sheet, including plot panels A and B.

One may read the EC50 as the concentration at which the effect is half-maximal. The Cmax is the peak of the concentration-time curve. By t½ is commonly meant how long it takes for the measured level to halve. A low value points to fast loss.

T3 sequence (P47871 26-477): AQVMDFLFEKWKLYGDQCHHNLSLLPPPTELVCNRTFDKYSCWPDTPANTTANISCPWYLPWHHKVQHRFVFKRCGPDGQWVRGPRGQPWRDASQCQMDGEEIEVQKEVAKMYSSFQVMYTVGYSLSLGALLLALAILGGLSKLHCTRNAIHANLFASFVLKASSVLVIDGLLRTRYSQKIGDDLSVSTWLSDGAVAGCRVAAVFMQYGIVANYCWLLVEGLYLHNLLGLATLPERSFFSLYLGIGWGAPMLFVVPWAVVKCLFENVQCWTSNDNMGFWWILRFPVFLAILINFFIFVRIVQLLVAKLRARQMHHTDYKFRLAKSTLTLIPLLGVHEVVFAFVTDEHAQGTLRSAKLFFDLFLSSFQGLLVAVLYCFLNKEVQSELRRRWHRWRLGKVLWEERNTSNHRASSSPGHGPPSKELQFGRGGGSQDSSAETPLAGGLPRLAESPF

B1: IP367 (protein)
chain: YSEGTFTSDYRILKERQAIDEFIAWLLKGGAAAGGSGSTASSGSGSATGGGGAATHTCPPC
Regarding B1, the EC50 was 0.057 nM in series [1] (Batch 1, BSA-cAMP assay, read-out: hGIPr cAMP activity EC50); 13 nM in the series with hGIPr (C3); more than 1300 nM in series [2].

B2: IP088: Fc fusion, IgG1-TM, SEQ ID NO:105; agonist peptide YSEGTFTSDYSKLLEEEAVRLFIEWLVKGP (SEQ ID NO:15) (protein)
chain: YSEGTFTSDYSKLLEEEAVRLFIEWLVKGPAAAGGSGSTASSGSGSATGGGGAATHTCPPCPAPEF
modifications: also: Fc fusion, IgG1-TM
On to B2, for which the “potency for GIPr, in words” value in series [1] (human receptor) was “high potencies”. In addition, in “PK by Fc Detection”, the “Cmax” value stood at 9.8 µg/mL, the “F (%)” value is 67% and the “t½” value was 71 h.
